Patent US20240165153A1

Assays:
CD19 = CD19 (UniProt P15391); assay: cell-based or functional assay
CD20 = CD20 (UniProt P11836); assay: cell-based or functional assay
UniProt P11836, sequence (P11836 whole entry): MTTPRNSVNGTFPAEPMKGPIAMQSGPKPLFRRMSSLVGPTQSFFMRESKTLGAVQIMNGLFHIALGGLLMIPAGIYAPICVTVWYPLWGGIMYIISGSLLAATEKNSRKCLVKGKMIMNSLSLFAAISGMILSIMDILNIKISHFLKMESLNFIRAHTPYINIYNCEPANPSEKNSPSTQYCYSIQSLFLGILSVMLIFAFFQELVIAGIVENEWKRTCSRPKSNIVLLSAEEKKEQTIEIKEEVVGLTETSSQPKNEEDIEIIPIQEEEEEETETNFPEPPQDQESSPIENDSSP

UniProt P15391, sequence (P15391 20-556 limits assumed): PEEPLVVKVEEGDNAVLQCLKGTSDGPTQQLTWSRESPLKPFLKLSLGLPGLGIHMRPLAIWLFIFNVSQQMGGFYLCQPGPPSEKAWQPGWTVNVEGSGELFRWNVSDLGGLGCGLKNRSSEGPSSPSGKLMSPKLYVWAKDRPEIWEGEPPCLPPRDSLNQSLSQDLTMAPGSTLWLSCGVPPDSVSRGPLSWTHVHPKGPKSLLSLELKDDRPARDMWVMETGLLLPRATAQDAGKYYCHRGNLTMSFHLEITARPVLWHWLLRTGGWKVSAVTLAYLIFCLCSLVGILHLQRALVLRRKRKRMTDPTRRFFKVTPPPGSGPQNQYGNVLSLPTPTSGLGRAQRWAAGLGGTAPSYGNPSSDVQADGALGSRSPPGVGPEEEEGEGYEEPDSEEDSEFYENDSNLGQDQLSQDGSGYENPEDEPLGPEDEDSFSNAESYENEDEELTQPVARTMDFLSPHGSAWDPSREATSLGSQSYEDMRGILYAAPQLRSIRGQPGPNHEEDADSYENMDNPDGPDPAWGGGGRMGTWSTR

## 10-5-2020 Hu19-CD828Z (anti-CD19 chimeric antigen receptor)
CD19
  CFSE median fluorescence intensity (lower = more proliferation), FIG. 9B, CD4+ T cells with Hu1928-Hu20BB long 10-21-2020, 4 days with CD19-K562 (NGFR-K562 control 28478) (relative fluorescence units): 1410
  CFSE median fluorescence intensity (lower = more proliferation), FIG. 10B, CD8+ T cells with Hu1928-Hu20BB long 10-21-2020, 4 days with CD19-K562 (NGFR-K562 control 24978) (relative fluorescence units): 1770
  IFNγ ELISA of supernatant; T cells transduced with Hu1928-Hu20BB long 10-21-2020, overnight with CD19-K562: 8210 pg/mL
  IFNγ release; T cells transduced with Hu1928-Hu20BB long 10-21-2020, with CD19-K562: 37500
  IFNγ release; T cells transduced with monospecific 10-5-2020 Hu19-CD828Z, with CD19-K562 (untransduced T cells: 217.2): 22000
  IFNγ release; T cells transduced with monospecific 10-5-2020 Hu19-CD828Z, with ST486, which expresses CD19 (weakly) and CD20 (untransduced T cells: 1674.8): 2070
  IFNγ release; T cells transduced with monospecific 10-5-2020 Hu19-CD828Z, with Toledo, which expresses CD19 and CD20 (untransduced T cells: 542.3): 3200
  IL-2 ELISA of supernatant; T cells transduced with Hu1928-Hu20BB long 10-21-2020, overnight with CD19-K562: 496 pg/mL
CD20
  IFNγ release; T cells transduced with monospecific 10-5-2020 Hu19-CD828Z, with CD19-negative CD20-K562 (untransduced T cells: 201.3): 291
  IFNγ release; T cells transduced with monospecific 10-5-2020 Hu19-CD828Z, with ST486 CD19-negative (untransduced T cells: 1464.3): 1360
  IFNγ release; T cells transduced with monospecific 10-5-2020 Hu19-CD828Z, with Toledo CD19-negative (untransduced T cells: 372.7): 702
